Laboratory results reported in patent US20230080224A1 (AGENCY FOR SCIENCE TECHNOLOGY AND RESEARCH, published 2023).
Positions count from the first letter of the chain named. One block for each binder: values may come before it.

Columns and labels:
[1] = biological target: T1, human ALPPL2 (recombinant protein) (human, UniProt P10696 20-503); experiment: BLI; single concentration
T1 chain: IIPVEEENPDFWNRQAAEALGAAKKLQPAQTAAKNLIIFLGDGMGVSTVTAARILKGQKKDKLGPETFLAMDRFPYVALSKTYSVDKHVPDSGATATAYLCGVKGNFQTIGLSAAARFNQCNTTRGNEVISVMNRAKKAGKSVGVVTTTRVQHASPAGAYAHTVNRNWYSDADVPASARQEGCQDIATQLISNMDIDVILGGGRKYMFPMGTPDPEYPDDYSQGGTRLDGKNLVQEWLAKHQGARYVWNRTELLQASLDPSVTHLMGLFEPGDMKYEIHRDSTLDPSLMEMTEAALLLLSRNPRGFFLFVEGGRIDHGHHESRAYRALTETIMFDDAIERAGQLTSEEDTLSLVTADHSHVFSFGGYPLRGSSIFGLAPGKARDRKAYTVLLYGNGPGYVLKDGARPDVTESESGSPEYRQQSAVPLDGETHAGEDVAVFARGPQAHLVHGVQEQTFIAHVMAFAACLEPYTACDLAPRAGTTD

[2] = biological target: T2, human ALPPL2 (recombinant protein) (human, UniProt P10696 20-503, limits assumed); experiment: screen of rabbit B-cell clones by ELISA and FACS
T2 construct: biotinylated where captured on streptavidin
Text: (§1) Specific clones were screened and identified by ELISA and high throughput flow cytometry (FIG. 3). Rabbit kidney cells were transfected with either truncated (for ELISA screen) or full-length (for FACS screen) ALPI and ALPPL2.

[3] = biological target: T3, ALPI (screening and SPR/ELISA protein) (UniProt P09923 20-503, limits assumed); experiment: screen of rabbit B-cell clones by ELISA and FACS
T3 sequence (looked up): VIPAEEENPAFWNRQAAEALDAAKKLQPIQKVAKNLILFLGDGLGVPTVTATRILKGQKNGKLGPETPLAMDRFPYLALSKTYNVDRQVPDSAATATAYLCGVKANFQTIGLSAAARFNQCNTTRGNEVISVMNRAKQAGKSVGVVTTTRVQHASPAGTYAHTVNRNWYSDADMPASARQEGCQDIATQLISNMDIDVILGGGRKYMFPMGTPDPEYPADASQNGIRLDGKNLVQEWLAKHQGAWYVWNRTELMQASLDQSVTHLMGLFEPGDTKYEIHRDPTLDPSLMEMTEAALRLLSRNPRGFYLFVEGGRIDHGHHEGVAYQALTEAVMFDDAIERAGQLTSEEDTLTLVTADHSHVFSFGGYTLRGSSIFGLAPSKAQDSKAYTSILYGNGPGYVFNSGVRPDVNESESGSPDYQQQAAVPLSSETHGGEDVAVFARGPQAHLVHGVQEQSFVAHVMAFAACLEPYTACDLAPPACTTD
Text: as §1

Kd [1]: 0.2 nM
binding result [2]: binds
binding result [3]: no binding
B1: AB1C29 (antibody, V domains shown)
VH: QEHLEESGGGLVKPEGSLTLTCTASGFSFSSSYYMCWVRQAPGKGLEWIACIYPDDGNTYYASWAKGRFTISKTSSTTVTLQMTSLTAADTATYFCARALAYYAYVDGGHSYAINDFDLWGPGTLVTVSS
VL: QVLTQTPSSVSAAVGGTVTINCQSSQSVFSNDYFSWYQQKPGQPPKLLIYDASRLASGVPSRFKGSGSGTQFTLTISGVQCDDAATYYCQGTYYSSAWYNAFGGGTEVVVK
notes: Rabbit antibody cloned from a single B cell

Kd [1]: 2 nM
binding result [2]: binds
binding result [3]: no binding
B2: AB1C39 (antibody, V domains shown)
VH: QSLEESGGDLVKPGASLTLTCTASGFSFSSSYYMCWVRQAPGKGLEWIACIYAGSSGGTYYASWAKGRFTISKTSSTTVTLQMTSLTAADTATYFCARAFSYYYSDGYTGYAYGLWGPGTLVTVSS
VL: DIVMTQTPASVEAAVGGTVTIKCQASQSISSYLAWYQQKPGQPPKLLIYRASTLASGVPSRFKGSGSGTQFTLTISDLECADAATYYCQGAYYSSSSSYGFGGGTEVVVK
notes: as for B1

Kd [1]: 1.6 nM
binding result [2]: binds
binding result [3]: no binding
B3: AB2C124 (antibody, V domains shown)
VH: QEQLVESGGGLVQPEGSLTLTCTASGFSFSSSYFMCWVRQAPGKGLEWIACIYTGDGNNYYASWAKGRFTISKTSSTTVTLQMTSLTAADTATYFCSRGGSYYAYGYAGYDYYPDAFDYWGPGTLVTVSS
VL: B2 VL with A13V, A34S, G90S, A91Y, S97G
notes: as for B1

Kd [1]: 0.5 nM
binding result [2]: binds
binding result [3]: no binding
B4: AB2C102 (antibody, V domains shown)
VH: QQQLEESGGDLVQPGASLTLTCTASGFSFNSNYWMCWGRQAPGKGLEWIGCILFGNTDTYYANWAKGRFTISKTSSTTVTLQMTSLTAADTATYFCARSVSGVGSAWNLWGPGTLVTVSS
VL: IVMTQTPSSKSVPVGDTVTINCQASESVYNNNHLAWYQQKPGQSPKLLIYLASILDSGVPSRFKGSGSGTQFTLTISDVVCDDAATYYCAGYKGITIDGSAFGGGTELVVK
notes: as for B1

Kd [1]: 0.8 nM
binding result [2]: binds
binding result [3]: no binding
B5: AB1C12 (antibody, V domains shown)
VH: QSLEESGGDLVKPGASLTLTCTASGFSFSSSYWISWVRQAPGKGLEWIACIAIGSSGTTYYASWAKGRFTISKTSSTTVTLQMTSLTAADTATYFCARSGDGYTYVELWGPGTLVTVSS
VL: DVVMTQTPASVSEPVGGTVTIKCQASQSISSYLAWYQQKPGQPPKLLIYRASTLASGVPSRFKGSGSGTQFTLTISDLECADAATYYCQNYYDIDDSDNTFGGGTEVVVK
notes: as for B1

Kd [1]: 0.1 nM
binding result [2]: binds
binding result [3]: no binding
B6: AB2C136 (antibody, V domains shown)
VH: QEQLEESGGDLVKPGASLTLTCTASGFSFNSNYYMCWVRQAPGKGLEWIACIYTGIVVPTYYASWAKGRFTISKTSSTTVTLQMTSLTAADTATYFCARDPYVGSSYIYNLWGPGTLVTVSS
VL: LVMTQTPSPVSAAVGSTVTISCQSSQSVYNNNNLAWYQQKPGQPPKLLIYSASSLASGVPSRFKGSGSGTQFTLTISGVECDDAATYYCAGYKTYSNNENAFGGGTEVVVK
notes: as for B1

Kd [1]: 1 nM
binding result [2]: binds
binding result [3]: no binding
B7: AB2C133 (antibody, V domains shown)
VH: QSLEESGGDLVKPGASLTLTCTASGLDFSSSYWICWVRQAPGKGLEWIGCIKTATETTVYASWAKGRFTISKTSSTTVTLQMTSLTAADTATYLCAKTYADNGGYINLWGPGTLVTVSS
VL: LVMTQTPSSVSAAVGGTVTINCQASQNIYNNLAWYQQKPGQRPKLLIYGASNLESGVPSRFKGSGSGTEYTLTISDLECDDAATYYCQSADLTSSINVFGGGTEVVVK
notes: as for B1

Kd [1]: 0.15 nM
binding result [2]: binds
binding result [3]: no binding
B8: AB1C10 (antibody, V domains shown)
VH: QSLEESGGDLVKPGASLTLTCTASGFDFSSNGMCWVRQAPGKGLEWIACIYVDSSDNTNYASWVNGRFTISRTSSTTVTLQMTSLTAADTATYFCARGYGYVGSAMDLWGQGTLVTVSS
VL: DIVMTQTPASVEAAVGGTVTIKCQASQSINNELSWYQQKPGQRPKLLIYGASTLESGVPSRFSGSGSGTEFTLTISDLECADAATYYCQSAYYSSSSSYANTFGGGTEVVVK
notes: as for B1

Kd [1]: 0.4 nM
binding result [2]: binds
binding result [3]: no binding
B9: AB1C31 (antibody, V domains shown)
VH: B8 VH with T79D, Q81K
VL: B8 VL with N30S
notes: as for B1

Kd [1]: 1.4 nM
binding result [2]: binds
binding result [3]: no binding
B10: AB1C25 (antibody, V domains shown)
VH: B8 VH with N57S, N59Y
VL: B8 VL with N30S, V111A, K112A
notes: as for B1

Kd [1]: 1.69 nM
binding result [2]: binds
binding result [3]: no binding
B11: AB1C19 (antibody, V domains shown)
VH: QSLEESGGDLVQPEGSLTLTCKASGFDFSTNIMCWVRQAPGKGLEWIACIYAGDGSTYYASWVNGRFTISKTSSTTVTLQMTSLTAADTATYFCARASTYWNYGYAGYGYYPGYFNLWGPGTLVTVSS
VL: DIVMTQTPASVEAAVGGTVTIKCQASQSIISALAWYQQKPGQPPKLLIYAASTLASGVPSRFKGSGSGTQFTLTISDLECADAATYYCQTYAYSTKSNYGSVFGGGTEVVVK
notes: as for B1

Kd [1]: 8 nM
binding result [2]: binds
binding result [3]: no binding
B12: AB2C131 (antibody, V domains shown)
VH: QSLEESGGGLVQPEGSLTLTCTASGFSFSSSYYMCWVRQAPGKGLEWIACIYAGSTFSTYYASWAKGRFTISKTSSTTVTLQMTSLTAADTATYFCARSDSYYTYGYAGYAYAIFNLWGPGTLVTVSS
VL: LVMTQTPSSVSAAVGGTVTINCQASESIYSNLAWYQQKPGQPPKLLIYLASTLASGVPSRFKGSGSGTEFTLTISDLECADAATYYCQSAYYSSSADIAFGGGTEVVVK
notes: as for B1

Kd [1]: 0.001 nM
binding result [2]: binds
binding result [3]: no binding
B13: AB2C129 (antibody, V domains shown)
VH: QSLEESGGDLVKPGASLTLTCTASGFSFSSSYWICWVRQAPGKGLEWIACIYAGSSGDTYYASWAKGRFTISKTSSTTVTLQTTSLTAADTATYFCARAEYIDGYADYTYTTLYYFDLWGPGTPVTVSS
VL: DVVMTQTPASVSEPVGGTVTINCQASESINSWLAWYQQKPGQPPKLLIYSASTLASGVPSRFKGSGSGIEFTLTISDLECADAATYFCQSYYSFSRFAFGGGTEVVVK
notes: as for B1

Kd [1]: 1.7 nM
binding result [2]: binds
binding result [3]: no binding
B14: AB2C127 (antibody, V domains shown)
VH: QSLEESGGDLVKPGASLTLTCTASGFSFNSYYMCWVRQAPGKGLEWIACISGGSSDNTYYASWAKGRFTTSKTSSTTVTLQMTSLTAADTATYFCARDIPRSGYFGCDLWGPGTLVTVSS
VL: VVMTQTPASVSEPVGGTVTIKCQASQNIYSNLAWYQQKPGQRPKLLIYGASNLESGVPSRFKGSGSGTEYTLTISNLECADAATYYCQSTVYNSNYANTFGGGTEVVVK
notes: as for B1

Kd [1]: 1.4 nM
binding result [2]: binds
binding result [3]: no binding
B15: AB1C18 (antibody, V domains shown)
VH: QSLEESGGDLVKPGASLTLTCTASGFSFSSYWTCWVRQAPGKGLEWLGCTDGGSSGDTYYATWAKGRVAISKTSSTTVTLQVTSLTAADTATYFCARNLITWDLWGPGTLVTVSS
VL: IVMTQTPSSKSVPVGDTVTINCQASESVYNNNQLSWFQQKPGQPPKLLIYWASKLASGVPSRFKGSGSGTQFTLTISDVVCDDAATYYCAGYKSSITDGNAFGGGTEVVVK
notes: as for B1
